According to the supplement of paper PMC7877785:
± gives the uncertainty stated by the source.

Assay: self-splicing fitness, log relative to wild type (ln ratio); higher = more splicing; Tetrahymena group I intron in knt gene, E. coli kanamycin selection, DiMSum; sequences stand for … in CUCUCU…GGAGGGAAAAGUUAUCAGGCAUGCACCUGGUAGCUAGUCUUUAAACCAAUAGAUUGCAUCGGUUUAAAAGGCAAGACCGUCAAAUUGCGGGAAAGGGGUCAACAGCCGUUCAGUACCAAGUCUCAGGGGAAACUUUGAGAUGGCCUUGCAAAGGGUAUGGUAAUAAGCUGACGGACAUGGUCCUAACCACGCAGCCAAGUCCUAAGUCAACAGAUCUUCUGUUGAUAUGGAUGCAGUUCACAGACUAAAUGUCGGUCGGGGAAGAUGUAUUCUUCUCAUAAGAUAUAGUCGGACCUCUCCUUAAUGGGAGCUAGCGGAUGAAGUGAUGCAACACUGGAGCCGCUGGGAACUAAUUUGUAUGCGAAAGUAUAUUGAUUAGUUUUGGAGUACUCGUGGUCG
In short: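 Six replicate transformations of E. coli BL21(DE3) with a pET-22b(+) library were grown overnight at 37°C or 30°C. The library randomised all eight P1ex-region intron nucleotides, the intron lying in the knt kanamycin-resistance gene, and plates were LB agar with or without 25 μg/mL kanamycin plus 100 μg/mL carbenicillin, 50 μM IPTG and 0.2% rhamnose. Pooled colonies were amplicon-sequenced on an Illumina HiSeq 2500, and fitness is the DiMSum error-weighted combination of wild-type-normalised replicate fold changes, kanamycin versus none.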

Sequence | self-splicing fitness (ln) (30 °C) | self-splicing fitness (ln) (37 °C)
UAGGAGCAAUAUUACGGCGG | -2.34 ± 0.24 | -0.013 ± 0.26
GAUCAGCAAUAUUACGAUGA | -0.0415 ± 0.095 | 0.313 ± 0.12
CUAAAGCAAUAUUACGAUGC | -3.96 ± 0.3 | -3.1 ± 0.33
AUAUAGCAAUAUUACGGUAC | -3.69 ± 0.39 | -2.59 ± 0.22
UGUCAGCAAUAUUACGCGCG | -0.708 ± 0.14 | 0.0603 ± 0.13
AAAUAGCAAUAUUACGCUGU | -3.27 ± 0.14 | -1.89 ± 0.1
CGCAAGCAAUAUUACGGCCC | -1.17 ± 0.24 | -1.23 ± 0.26
GCGAAGCAAUAUUACGGUUC | -3.23 ± 0.2 | -1.24 ± 0.18
AUGAAGCAAUAUUACGGGCC | -1.73 ± 0.29 | -0.73 ± 0.22
GCGCAGCAAUAUUACGCCGA | -0.753 ± 0.49 | -1.27 ± 0.28
AGGUAGCAAUAUUACGCUCC | -3.31 ± 0.052 | -2.43 ± 0.064
GGGAAGCAAUAUUACGCUGC | -2.83 ± 0.48 | –
UCUUAGCAAUAUUACGACAU | -3.836 ± 0.034 | -2.41 ± 0.04
GGCCAGCAAUAUUACGAAUG | -4.74 ± 0.39 | -2.17 ± 0.22
GGCAAGCAAUAUUACGUUUA | -1.29 ± 0.1 | -0.0113 ± 0.11
AUGAAGCAAUAUUACGGUAC | -1.71 ± 0.14 | -0.139 ± 0.13
UAGCAGCAAUAUUACGGAAA | -1.82 ± 0.17 | -1.81 ± 0.29
GAGCAGCAAUAUUACGGGCA | -1.48 ± 0.17 | -0.674 ± 0.13
GGUGAGCAAUAUUACGUUUA | -3.01 ± 0.28 | -1.44 ± 0.18

Sequence | self-splicing fitness (ln) (30 °C) | self-splicing fitness (ln) (37 °C)
UGCCAGCAAUAUUACGGGCG | -3.1 ± 0.16 | -2.73 ± 0.21
CGCAAGCAAUAUUACGCGAU | -3.15 ± 0.22 | -3.83 ± 0.42
GGUAAGCAAUAUUACGAACA | -0.0165 ± 0.19 | -0.383 ± 0.18
UGUAAGCAAUAUUACGCAUC | -3.16 ± 0.31 | -1.74 ± 0.23
AGCGAGCAAUAUUACGUUAG | -2.38 ± 0.11 | -3.18 ± 0.27
AAUCAGCAAUAUUACGUCCC | -0.818 ± 0.1 | 0.164 ± 0.14
GCGAAGCAAUAUUACGCAGC | -3.31 ± 0.25 | -2.06 ± 0.34
CUAGAGCAAUAUUACGUGCC | -2.84 ± 0.24 | -1.41 ± 0.24
GCCUAGCAAUAUUACGUUUG | -2.89 ± 0.21 | -0.761 ± 0.13
CGAAAGCAAUAUUACGGCGG | -0.187 ± 0.067 | 0.456 ± 0.093
CGCCAGCAAUAUUACGUGGC | -3.72 ± 0.2 | -2.5 ± 0.2
CAACAGCAAUAUUACGGUAA | -1.71 ± 0.089 | -1.61 ± 0.094
UCCAAGCAAUAUUACGGCGU | -1.95 ± 0.091 | -0.529 ± 0.1
GCUUAGCAAUAUUACGUCGG | -1.89 ± 0.13 | -1.75 ± 0.18
GCCUAGCAAUAUUACGCGAU | -3.87 ± 0.24 | -1.68 ± 0.16
CGAGAGCAAUAUUACGGCUG | -1.18 ± 0.13 | -1.14 ± 0.17
UCGAAGCAAUAUUACGCAGC | -2.71 ± 0.27 | -2.18 ± 0.23
CUUAAGCAAUAUUACGCGCG | -1.54 ± 0.12 | -0.513 ± 0.17
